Target: human Factor XIIa (human) (UniProt P00748)
Sequence (P00748 20-615): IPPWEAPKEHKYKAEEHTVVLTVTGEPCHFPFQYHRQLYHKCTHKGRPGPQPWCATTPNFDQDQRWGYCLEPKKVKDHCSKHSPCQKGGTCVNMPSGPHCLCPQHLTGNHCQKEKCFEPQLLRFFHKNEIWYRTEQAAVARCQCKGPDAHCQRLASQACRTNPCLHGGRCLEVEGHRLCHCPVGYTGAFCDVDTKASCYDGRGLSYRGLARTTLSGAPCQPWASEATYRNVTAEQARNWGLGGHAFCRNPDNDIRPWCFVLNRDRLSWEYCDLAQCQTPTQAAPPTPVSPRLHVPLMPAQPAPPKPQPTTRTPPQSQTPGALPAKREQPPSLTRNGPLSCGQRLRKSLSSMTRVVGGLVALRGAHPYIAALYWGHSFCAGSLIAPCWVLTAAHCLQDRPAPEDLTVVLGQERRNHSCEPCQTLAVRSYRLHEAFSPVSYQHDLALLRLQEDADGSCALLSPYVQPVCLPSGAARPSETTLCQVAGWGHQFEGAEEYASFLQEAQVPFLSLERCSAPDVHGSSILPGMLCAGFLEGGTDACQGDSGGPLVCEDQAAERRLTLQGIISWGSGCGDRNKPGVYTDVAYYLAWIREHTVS

Row | Substance | IC50 of inhibition of FXIIa activity, chromogenic assay (substrate S-2302) [nM]
1 | AaTI_Inf4 C1C3+C5C6+N27G | 11.4
2 | Inf4_F10P+N12I (domain or fragment) | 22.8
3 | Inf4_F10P+N12I+V14M (domain or fragment) | 70.5
4 | Inf4_F10P+V14M (domain or fragment) | 42.1
5 | Inf4_G25N (domain or fragment) | 54.1
6 | Inf4_N12I+V14M (domain or fragment) | 7.9

Source: article PMC9112662, “Scaffold stability and P14′ residue steric hindrance in the differential inhibition of FXIIa by Aedes aegypti trypsin inhibitor versus Infestin-4” (Bioscience Reports, 2022)
